This note sets out measurements from the Immune Epitope Database (IEDB).

By Kd is commonly meant the constant that tells how readily two partners part at equilibrium. A lower Kd goes with a tighter complex. The term IC50 denotes the concentration at which inhibition is half-maximal. A high value points to lower potency.

Assay [1] concerns the target HLA-A*02:01. The assay is described as follows: IEDB peptide-MHC binding, purified MHC/competitive/fluorescence; filed as Kd, often an IC50 or EC50 that approximates it; ≥ and ≤ were set here for values at or beyond the usual limits of such assays.
The target of assay [2] is HLA-B*08:02. The assay is described as follows: IEDB peptide-MHC binding, purified MHC/direct/fluorescence; filed as Kd, often an IC50 or EC50 that approximates it; ≥ and ≤ were set here for values at or beyond the usual limits of such assays.
For assay [3], the target named is HLA-B*08:01. The description is as above.
The target in assay [4] is HLA-B*15:17. The assay is described as follows: IEDB peptide-MHC binding, purified MHC/competitive/fluorescence; filed as Kd, often an IC50 or EC50 that approximates it; ≥ and ≤ were set here for values at or beyond the usual limits of such assays. The note with it: source organism: Zaire ebolavirus.
Assay [5] has as its target HLA-A*26:01. The description is as above. The following applies: source organism: Zaire ebolavirus.
In assay [6] the target is HLA-B*15:01. The description is as above. The note with it: source organism: Zaire ebolavirus.
In assay [7] the target is HLA-A*69:01. Described as above. The note with it: source organism: Zaire ebolavirus.
The target of assay [8] is HLA-B*46:01. The assay is described as above. The following applies: source organism: Zaire ebolavirus.
Assay [9] concerns the target HLA-B*18:01. The description is as above. The note with it: source organism: Zaire ebolavirus.
The target in assay [10] is HLA-B*51:01. The assay is described as above. The following applies: source organism: Zaire ebolavirus.
Assay [11] addresses HLA-B*27:03. Described as above. The note with it: source organism: Zaire ebolavirus.
Assay [12] addresses HLA-B*57:01. The description is as above. The note with it: source organism: Zaire ebolavirus.
Assay [13] has as its target HLA-B*39:01. The assay is described as above. The following applies: source organism: Zaire ebolavirus.
The target in assay [14] is HLA-A*02:16. The assay is described as follows: IEDB peptide-MHC binding, purified MHC/direct/fluorescence; filed as Kd, often an IC50 or EC50 that approximates it; ≥ and ≤ were set here for values at or beyond the usual limits of such assays.
For assay [15], the target named is HLA-A*03:01. The assay is described as above.
For assay [16], the target named is HLA-A*02:11. Described as above.
In assay [17] the target is HLA-A*24:03. The description is as above.
In assay [18] the target is HLA-A*68:02. Described as above.
In assay [19] the target is HLA-A*29:02. The description is as above.
Assay [20] has as its target HLA-A*02:03. Described as above.
In assay [21] the target is HLA-A*02:19. Described as above.
Assay [22] concerns the target HLA-A*02:12. The assay is described as above.
The target in assay [23] is HLA-B*07:02. The assay is described as follows: IEDB peptide-MHC binding, purified MHC/competitive/fluorescence; ≥ and ≤ were set here for values at or beyond the usual limits of such assays.
The target of assay [24] is HLA-A*24:02. The description is as above. The note with it: source organism: Zaire ebolavirus.
The target of assay [25] is HLA-B*15:01. The description is as above. The note with it: source organism: Zaire ebolavirus.
Assay [26] has as its target HLA-A*02:01. Described as above. The following applies: source organism: Zaire ebolavirus.
Assay [27] concerns the target HLA-B*40:01. The assay is described as follows: IEDB peptide-MHC binding, purified MHC/direct/fluorescence; filed as Kd, often an IC50 or EC50 that approximates it; ≥ and ≤ were set here for values at or beyond the usual limits of such assays. The note with it: source organism: West Nile virus.
Assay [28] has as its target HLA-B*44:02. The assay is described as above. The note with it: source organism: West Nile virus.
In assay [29] the target is HLA-B*27:05. Described as above. The following applies: source organism: West Nile virus.
Assay [30] deals with HLA-B*15:01. The assay is described as above. The note with it: source organism: West Nile virus.
In assay [31] the target is HLA-A*11:01. Described as above. The following applies: source organism: West Nile virus.
In assay [32] the target is HLA-A*69:01. Described as above. The following applies: source organism: West Nile virus.
In assay [33] the target is HLA-B*46:01. The description is as above. The note with it: source organism: West Nile virus.
The target of assay [34] is HLA-B*18:01. The assay is described as above. The following applies: source organism: West Nile virus.
Assay [35] has as its target HLA-B*51:01. The description is as above. The note with it: source organism: West Nile virus.
Assay [36] deals with HLA-B*58:01. The description is as above. The note with it: source organism: West Nile virus.
The target of assay [37] is HLA-A*02:01. The description is as above. The note with it: source organism: West Nile virus.
Assay [38] addresses HLA-A*01:01. Described as above. The note with it: source organism: West Nile virus.
The target of assay [39] is HLA-A*31:01. The assay is described as above. The following applies: source organism: West Nile virus.
Where [40] appears, read: source organism: Giardia lamblia ATCC 50803.
[41] abbreviates: source organism: Zaire ebolavirus.
The mark [42] stands for this setting: source organism: Ebola virus Yambio0403.
[43] abbreviates: source organism: West Nile virus.

Take ELRKRNEAL: the figures for the Kd in assay [1] (setting [40]), in assay [2] (setting [40]) and in assay [3] (setting [40]) were at least 20 µM, 2.82 µM and 0.042 µM, respectively.
Consider RYEFTAPFI, for which the Kd in assay [4], in assay [5], in assay [6], in assay [7], in assay [8] and in assay [9] was at least 20 µM in each case. The dissociation constant Kd in assay [10], in [11], in assay [12], in [13], in [1] (setting [41]) and in assay [14] (setting [42]) was at least 20 µM each time. The Kd is at least 20 µM in assay [15] (setting [42]); at least 20 µM in assay [16] (setting [42]); 0.0002 µM in assay [17] (setting [41]); at least 20 µM in assay [18] (setting [42]); at least 20 µM in assay [19] (setting [42]); at least 20 µM in assay [20] (setting [42]). For the same sequence, the Kd in assay [21] (setting [42]) and in assay [22] (setting [42]) was at least 20 µM each time.
For AAPDGIRGF, the results for the IC50 in assay [23] (setting [41]) and in [24] were 12.2 µM and 69.8 µM, respectively.
For QFLSFASLF, the Kd in assay [4], in assay [5], in assay [7], in assay [8], in assay [9] and in assay [10] was at least 20 µM each time. For the same sequence, the Kd in [11], in assay [12], in assay [13], in assay [1] (setting [41]), in [14] (setting [41]) and in assay [15] (setting [41]) was at least 20 µM throughout. Further, the Kd in assay [16] (setting [41]) is at least 20 µM; in [17] (source organism: Reston ebolavirus), 0.0027 µM; in [18] (setting [41]) it was at least 20 µM; in assay [20] (setting [41]), at least 20 µM; in [21] (setting [41]) it was at least 20 µM; in [22] (setting [41]), at least 20 µM. Further, the IC50 in assay [25] is 9.93 µM; in assay [24], 0.0128 µM; in assay [26], at least 88.1 µM.
Turning to HSRRSRRSL, the Kd is 5.67 µM in [2] (source organism: West Nile virus strain PTRoxo); at least 20 µM in assay [15] (setting [43]); at least 20 µM in assay [27]; at least 20 µM in assay [28]; at least 20 µM in [29]; at least 20 µM in [30]. In addition, the Kd in [3] (setting [43]) was 0.211 µM; in assay [31] it was at least 20 µM; in [32] it was at least 20 µM; in [33], at least 20 µM; in assay [34], at least 20 µM; in assay [19] (setting [43]) it was at least 20 µM. In addition, the Kd in [35], in assay [36], in [37], in [38] and in [39] was at least 20 µM throughout.
KPGPDNSTH had an IC50 in assay [23] (setting [41]) of at least 191 µM.
On the same count and under the same terms, the same measure for IPYFGPAAE: at least 135 µM.
With GPRGALSLL, in assay [23] (source organism: Homo sapiens), the IC50 came to 0.166 µM.
Take TPTVAPPAP: the IC50 in assay [23] (setting [41]) was at least 145 µM.
Regarding MLKRRGFHL, the Kd in assay [2] (source organism: Salmonella enterica subsp. enterica serovar Typhi str. CT18) was 0.102 µM.
In assay [23] (setting [41]), LPKTSGHYD registered an IC50 of at least 182 µM.
As for NYNGLLSSI, the Kd in assay [4], in assay [5], in assay [6], in assay [7], in assay [8] and in assay [9] was at least 20 µM in each case. The Kd in [10], in [11], in assay [12], in assay [13], in assay [1] (setting [41]) and in [14] (setting [41]) was at least 20 µM throughout. The Kd in assay [15] (setting [41]) was at least 20 µM; in assay [16] (setting [41]) it was at least 20 µM; in assay [17] (source organism: Ebola virus - Gabon (1994-1997)), 0.0003 µM; in assay [18] (setting [41]), at least 20 µM; in assay [20] (setting [41]) it was at least 20 µM; in assay [21] (setting [41]), at least 20 µM. The Kd in assay [22] (setting [41]) was at least 20 µM.
